Target: T1, 重组Desmin蛋白 (人Desmin α螺旋杆状区第109位至第412位氨基酸片段 + 组氨酸标签, 大肠杆菌表达) (human, UniProt P17661 109-412)
T1 construct: range 109-412; Expressed in E. coli Rosetta from pET-28a(+) (EcoRI/HindIII), solubilised from inclusion bodies in 8 M urea and purified on Ni-NTA; also called 重组Desmin蛋白片段; 免疫原; not shown: histidine tag from vector pET28a(+)
Test: indirect ELISA on coated recombinant Desmin; affinity constant calculated from the antibody concentration at half of the plateau OD450

T1 sequence (P17661 109-412): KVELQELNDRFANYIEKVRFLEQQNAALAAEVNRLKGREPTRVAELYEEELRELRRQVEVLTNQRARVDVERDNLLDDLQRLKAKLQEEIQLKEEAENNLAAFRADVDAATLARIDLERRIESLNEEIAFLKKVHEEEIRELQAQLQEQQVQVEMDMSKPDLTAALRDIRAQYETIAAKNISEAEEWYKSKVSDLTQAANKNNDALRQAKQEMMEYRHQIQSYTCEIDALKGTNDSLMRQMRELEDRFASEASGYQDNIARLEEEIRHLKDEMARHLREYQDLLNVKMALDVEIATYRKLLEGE

B1: 抗Desmin蛋白单克隆抗体(14G1C12) (antibody, V domains shown)
VH: QIQLVQSGPELKKPGETVKISCKASGYTFTNYGMNWVKQAPGKGLKWMGWINTNTGEPTYAEEFKGRFAFSLETSASTAYLQINNLKNEDTATYFCAREFSSWGQGTLVTVSA
VL: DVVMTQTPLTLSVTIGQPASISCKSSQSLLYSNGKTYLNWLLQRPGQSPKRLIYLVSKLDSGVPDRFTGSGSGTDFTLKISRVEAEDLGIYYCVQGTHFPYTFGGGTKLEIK
notes: also called Desmin单克隆抗体; 14G1C12的Desmin
  Ka: 6.82e+09 M⁻¹
